The results in this text go back to doi:10.1101/2025.07.10.664194 (bioRxiv, 2025).

This assay addresses T1, BcGabija GajA (Bacillus cereus, UniProt J8H9C1 1-578).
T1 construct: also called Bacillus cereus GajA nuclease subunit
T1 sequence: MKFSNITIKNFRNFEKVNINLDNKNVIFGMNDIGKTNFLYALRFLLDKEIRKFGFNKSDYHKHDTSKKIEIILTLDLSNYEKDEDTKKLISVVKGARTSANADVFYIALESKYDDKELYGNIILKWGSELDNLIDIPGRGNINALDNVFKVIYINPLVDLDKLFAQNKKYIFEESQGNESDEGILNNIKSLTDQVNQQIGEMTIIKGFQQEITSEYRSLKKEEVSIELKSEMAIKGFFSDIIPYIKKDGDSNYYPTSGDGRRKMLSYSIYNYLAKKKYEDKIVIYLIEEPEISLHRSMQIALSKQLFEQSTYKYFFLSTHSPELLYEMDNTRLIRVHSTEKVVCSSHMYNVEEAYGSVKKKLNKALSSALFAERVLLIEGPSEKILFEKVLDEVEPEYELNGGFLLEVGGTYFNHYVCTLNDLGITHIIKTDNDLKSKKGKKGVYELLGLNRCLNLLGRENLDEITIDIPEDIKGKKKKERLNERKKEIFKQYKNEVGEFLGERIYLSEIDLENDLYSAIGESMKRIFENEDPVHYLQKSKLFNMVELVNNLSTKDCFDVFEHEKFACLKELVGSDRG
The assay can be described thus: mass photometry. As to conditions: both partners purified.

B1: BcGabija GajB (natural protein)
chain: MSREQIIKDGGNILVTAGAGSGKTTILVSKIEADLKENKTHYSIAAVTFTNKAAKEIEGRLGYSSRGNFIGTNDGFVESEIIRPFIKDAFGNDYPDNFTAEYFDNQFASYDKGLQVLKYQNILGTYSNPKKNFKFQLALDILKKSLVARQYIFSKYFKIFIDEYQDSDKDMHNLFMYLKDQLKIKLFIVGDPKQSIYIWRGAEPENFNGLIENSTDFNKYHLTSNFRCCQDIQNYSNLFNEETRSLIKEKNEVQNVISIADDMPISDILLKLTEEKQVLNIEAELVILVRRRNQAIEIMKELNEEGFNFIFIPQTPLDRATPNATLLKEVIKYVKNDRYSIYDLAAEIVGNLSSREIKEIQKIINELLVPNINQVLINQVLINLFAKLEITLDTREITAFTEVMMTNEFDIAFDTNEYLHKIFTVHSAKGLEFNQVIITASDYNVHYNRDTNEHYVATTRAKDKLIVIMDNKKYSDYIETLMKELKIKNIIKSI
notes: also called NTPase subunit of BcGabija
As for B1, the “stoichiometry N” value is 1 GajA:GajB (4:4).
